Measured values taken from patent US20190330362A1 (GOVERNING COUNCIL OF THE UNIVERSITY OF TORONTO, published 2019).

How the values were obtained:
[1] = molecular target: T1, human CD133 (GenBank Accession O43490) (human, UniProt O43490 20-865); experiment: flow cytometry, serial dilutions on HEK293-CD133 cells, anti-human Fab'2 secondary antibody
T1 construct: Full-length human CD133 overexpressed in HEK293-CD133 cells, or endogenous on Caco-2, HPAC, PL45, RWP-1 and GBM cells; In the Western blots the same protein is denatured in whole cell lysate; also called Prominin-1; cell surface CD133
T1 sequence: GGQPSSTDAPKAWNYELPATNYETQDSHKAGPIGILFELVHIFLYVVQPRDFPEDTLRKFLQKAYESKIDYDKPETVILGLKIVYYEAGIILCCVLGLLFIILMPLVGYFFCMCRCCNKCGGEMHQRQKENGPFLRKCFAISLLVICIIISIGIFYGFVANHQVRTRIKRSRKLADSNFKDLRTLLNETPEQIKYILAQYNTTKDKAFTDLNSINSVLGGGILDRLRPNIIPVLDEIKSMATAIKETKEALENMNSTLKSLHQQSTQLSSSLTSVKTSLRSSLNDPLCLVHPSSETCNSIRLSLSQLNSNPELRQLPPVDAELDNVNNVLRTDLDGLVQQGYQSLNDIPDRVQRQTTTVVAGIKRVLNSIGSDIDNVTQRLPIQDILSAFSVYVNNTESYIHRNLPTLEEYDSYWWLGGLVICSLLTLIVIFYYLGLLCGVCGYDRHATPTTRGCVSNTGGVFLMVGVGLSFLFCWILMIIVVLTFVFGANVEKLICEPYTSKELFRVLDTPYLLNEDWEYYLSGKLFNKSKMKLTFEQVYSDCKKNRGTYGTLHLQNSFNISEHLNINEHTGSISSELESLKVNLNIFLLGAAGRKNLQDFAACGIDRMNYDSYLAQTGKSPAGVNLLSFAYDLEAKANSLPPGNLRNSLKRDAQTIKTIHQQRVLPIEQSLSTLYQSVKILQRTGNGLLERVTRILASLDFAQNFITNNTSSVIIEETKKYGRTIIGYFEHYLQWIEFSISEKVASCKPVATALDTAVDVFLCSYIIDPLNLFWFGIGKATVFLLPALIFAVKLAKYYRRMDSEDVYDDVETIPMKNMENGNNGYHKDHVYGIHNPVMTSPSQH

[2] = molecular target: T1, human CD133 (GenBank Accession O43490); experiment: competitive flow cytometry on CD133-expressing cells first incubated with 25 nM Fab RW01, secondary antibody against human Fc
[3] = molecular target: T1, human CD133 (GenBank Accession O43490); experiment: flow cytometry on CD133-expressing cells (cell line not given), IgG alone, secondary antibody against human Fc
[4] = molecular target: T1, human CD133 (GenBank Accession O43490); experiment: cell-based phage ELISA (OD450)
Protocol: Following cell selections, round four output phage for each library was plated for single colonies. These colonies were grown up in an overnight culture and tested for binding to cells by cell-based ELISA. The plates were read and OD450 nm was detected and recorded. The assay measured binding of clones to CD133-overexpressing HEK293-CD133 cells (under “CD133” column headers) vs parental HEK293 cells (under “HEK293” column headers).
After four rounds of positive and negative selection, serial dilutions were made of the round four output phage (10E-1 to 10E-3) for each library and used to infect XL1-blue cells. The infected cells were plated for isolating single colonies to be used in a clonal cell-based ELISA for isolating CD133-specific binders.

Binder	EC50 [1] [nM]	EC50 (read off the curve) [2] [nM]	EC50 (read off the curve) [3] [nM]	fold binding to HEK293-CD133 cells vs HEK293 cells [4] [fold]
IgG RW03 (antibody, V domains shown, Human IgG1 (hG1) with kappa light chain (hK); variable region of Fab RW03 (Library F); also called RW03 IgG; lIgG RW03) VH: EVQLVESGGGLVQPGGSLRLSCAASGFNLSSSSIHWVRQAPGKGLEWVAYIYPYYSYTYYADSVKGRFTISADTSKNTAYLQMNSLRAEDTAVYYCARFGSVAGFDYWGQGTLVTVSS VL: DIQMTQSPSSLSASVGDRVTITCRASQSVSSAVAWYQQKPGKAPKLLIYSASSLYSGVPSRFSGSRSGTDFTLTISSLQPEDFATYYCQQYSHAGHLFTFGQGTKVEIKR	0.5	~1	~1	
phage-Fab RW03 (Fab, V domains shown, also called phage-Fab clone RW03; RW03 clone) VH: EVQLVESGGGLVQPGGSLRLSCAASGFNLSSSSIHWVRQAPGKGLEWVAYIYPYYSYTYYADSVKGRFTISADTSKNTAYLQMNSLRAEDTAVYYCARFGSVAGFDYWGQGTLVTVSS VL: DIQMTQSPSSLSASVGDRVTITCRASQSVSSAVAWYQQKPGKAPKLLIYSASSLYSGVPSRFSGSRSGTDFTLTISSLQPEDFATYYCQQYSHAGHLFTFGQGTKVEIK				≥ 1.5
IgG RW01 (antibody, V domains shown, also called RW01 IgG; lIgG RW01) VH: EVQLVESGGGLVQPGGSLRLSCAASGFNIYYYGSMHWVRQAPGKGLEWVASISPYYGSTYYADSVKGRFTISADTSKNTAYLQMNSLRAEDTAVYYCARHASSGYGHYAVYGIDYWGQGTLVTVSS VL: DIQMTQSPSSLSASVGDRVTITCRASQGSSYVAWYQQKPGKAPKLLIYSASYLYSGVPSRFSGSRSGTDFTLTISSLQPEDFATYYCQQGVWSLITFGQGTKVEIKR	2.5			
